From the supplement of paper PMC10567573 come the findings set out here.

B1: IQUB (parent)
chain: EADYEDDSKIAFLMQLQDIQYLTE
B2: DUSP5 (parent)
chain: YSEYPECCVDVKPISQEKIESERA
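Note: lentivirally expressed fusions sorted by FACS into six bins by GFP to DsRed ratio, PSI derived from sequencing read proportions per bin multiplied by bin number.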

The variants in one data set derive from B1. The experiment in a line: protein stability index of a GFP-peptide fusion (GPS, HEK-293T) (PSI 1-6); higher = more stable. The note with it: c terminus: a fixed tail appended.
As to EADYEDDSKIAFLMQLQDEQYLTE [I19E], the protein stability index is 4.96.

On to EADYEDDSKIAFLMQMQDIQYLTE [L16M], for which the protein stability index turned out to be 3.55.

With EADYEDDSKIAFLMQCQDIQYLTE [L16C], the protein stability index came to 4.06.

As for EADYEDDSKIAFLMQKQDIQYLTE [L16K], the protein stability index amounted to 4.53.

As for ESDYEDDSKIAFLMQLQDIQYLTE [A2S], the protein stability index amounted to 2.89.

In the case of EWDYEDDSKIAFLMQLQDIQYLTE [A2W], the protein stability index was found to be 2.17.

As to EIDYEDDSKIAFLMQLQDIQYLTE [A2I], the protein stability index was 2.99.

Consider EADYENDSKIAFLMQLQDIQYLTE [D6N], for which the protein stability index was determined as 2.9.

Turning to EADYEDDLKIAFLMQLQDIQYLTE [S8L], the protein stability index was determined as 2.25.

Consider EADYEDDDKIAFLMQLQDIQYLTE [S8D], for which the protein stability index is 3.62.

On to EADYEDDSKIAFLMQLQDIFYLTE [Q20F], for which the protein stability index stood at 1.54.

EADYEDDSKIAFLMQLQDIQELTE [Y21E]: the protein stability index worked out at 4.21.

For EADYEDDSLIAFLMQLQDIQYLTE [K9L], the protein stability index is 2.58.

For the variant EADYEDDSRIAFLMQLQDIQYLTE [K9R], the protein stability index stood at 2.89.

For the variant EADYQDDSKIAFLMQLQDIQYLTE [E5Q], the protein stability index amounted to 2.62.

With EADYEDESKIAFLMQLQDIQYLTE [D7E], the protein stability index was found to be 3.14.

As to EADYEDDSKIAFLMQLQDIQYLTI [E24I], the protein stability index came out at 1.67.

As for EADYEDDSKICFLMQLQDIQYLTE [A11C], the protein stability index came out at 2.54.

EADYEDDSKIDFLMQLQDIQYLTE [A11D]: the protein stability index turned out to be 4.07.

Turning to EADYEDDSKIFFLMQLQDIQYLTE [A11F], the protein stability index came to 2.38.

For EADYEDDSKIAKLMQLQDIQYLTE [F12K], the protein stability index was determined as 4.51.

EADHEDDSKIAFLMQLQDIQYLTE [Y4H]: the protein stability index is 3.35.

With EADQEDDSKIAFLMQLQDIQYLTE [Y4Q], the protein stability index was 3.78.

Take EADWEDDSKIAFLMQLQDIQYLTE [Y4W]: the protein stability index was 3.42.

Turning to EADKEDDSKIAFLMQLQDIQYLTE [Y4K], the protein stability index is 3.96.

As for EADYEDDSKGAFLMQLQDIQYLTE [I10G], the protein stability index is 4.13.

In the case of EADYEDDSKRAFLMQLQDIQYLTE [I10R], the protein stability index came to 3.82.

On to EADYEDDSKKAFLMQLQDIQYLTE [I10K], for which the protein stability index was determined as 4.01.

As for EADYEDDSKIAFLMQLQDIQYLRE [T23R], the protein stability index is 3.29.

Take EADYEDDSKIAFLVQLQDIQYLTE [M14V]: the protein stability index is 2.7.

EAVYEDDSKIAFLMQLQDIQYLTE [D3V]: the protein stability index turned out to be 2.51.

For EAQYEDDSKIAFLMQLQDIQYLTE [D3Q], the protein stability index came out at 2.23.

Variants of B2 are the subject of the next data set. The description is as above. To be noted: c terminus: a fixed tail appended.
In the case of YSYYPECCVDVKPISQEKIESERA [E3Y], the protein stability index amounted to 4.24.

As to YSQYPECCVDVKPISQEKIESERA [E3Q], the protein stability index was 4.36.

Turning to YSFYPECCVDVKPISQEKIESERA [E3F], the protein stability index was found to be 4.66.

Take YSAYPECCVDVKPISQEKIESERA [E3A]: the protein stability index stood at 4.55.

With YSHYPECCVDVKPISQEKIESERA [E3H], the protein stability index was found to be 4.49.

On to YSIYPECCVDVKPISQEKIESERA [E3I], for which the protein stability index came out at 4.17.

Consider YSRYPECCVDVKPISQEKIESERA [E3R], for which the protein stability index was determined as 4.17.

In the case of YSNYPECCVDVKPISQEKIESERA [E3N], the protein stability index came out at 4.62.

For YSCYPECCVDVKPISQEKIESERA [E3C], the protein stability index worked out at 3.53.

For YSDYPECCVDVKPISQEKIESERA [E3D], the protein stability index worked out at 5.39.

With YSMYPECCVDVKPISQEKIESERA [E3M], the protein stability index stood at 4.7.

On to YSKYPECCVDVKPISQEKIESERA [E3K], for which the protein stability index turned out to be 4.53.

Regarding YSSYPECCVDVKPISQEKIESERA [E3S], the protein stability index came out at 3.95.

Consider YSPYPECCVDVKPISQEKIESERA [E3P], for which the protein stability index is 4.56.

On to YSGYPECCVDVKPISQEKIESERA [E3G], for which the protein stability index turned out to be 4.27.

In the case of YSLYPECCVDVKPISQEKIESERA [E3L], the protein stability index stood at 4.24.

For YSTYPECCVDVKPISQEKIESERA [E3T], the protein stability index came out at 4.67.

For YSEFPECCVDVKPISQEKIESERA [Y4F], the protein stability index is 4.06.

On to YSEEPECCVDVKPISQEKIESERA [Y4E], for which the protein stability index was found to be 5.93.

As to YSEAPECCVDVKPISQEKIESERA [Y4A], the protein stability index is 5.66.

With YSEHPECCVDVKPISQEKIESERA [Y4H], the protein stability index is 5.02.

YSEDPECCVDVKPISQEKIESERA [Y4D]: the protein stability index came to 5.67.

Take YSEIPECCVDVKPISQEKIESERA [Y4I]: the protein stability index was determined as 5.75.

On to YSEGPECCVDVKPISQEKIESERA [Y4G], for which the protein stability index worked out at 5.77.

Take YREYPECCVDVKPISQEKIESERA [S2R]: the protein stability index amounted to 5.49.

On to YFEYPECCVDVKPISQEKIESERA [S2F], for which the protein stability index amounted to 4.11.

Consider YLEYPECCVDVKPISQEKIESERA [S2L], for which the protein stability index came to 3.67.

Consider YTEYPECCVDVKPISQEKIESERA [S2T], for which the protein stability index was found to be 2.62.

As to YPEYPECCVDVKPISQEKIESERA [S2P], the protein stability index came to 4.88.

Consider YIEYPECCVDVKPISQEKIESERA [S2I], for which the protein stability index came to 1.92.

Turning to YNEYPECCVDVKPISQEKIESERA [S2N], the protein stability index amounted to 5.31.

Consider YEEYPECCVDVKPISQEKIESERA [S2E], for which the protein stability index stood at 5.79.

Take YMEYPECCVDVKPISQEKIESERA [S2M]: the protein stability index was found to be 4.28.

For the variant YAEYPECCVDVKPISQEKIESERA [S2A], the protein stability index was 3.48.

Take YHEYPECCVDVKPISQEKIESERA [S2H]: the protein stability index is 2.13.

For the variant YYEYPECCVDVKPISQEKIESERA [S2Y], the protein stability index is 4.93.

Consider YVEYPECCVDVKPISQEKIESERA [S2V], for which the protein stability index was 2.53.

On to YKEYPECCVDVKPISQEKIESERA [S2K], for which the protein stability index was found to be 5.35.

As to YWEYPECCVDVKPISQEKIESERA [S2W], the protein stability index turned out to be 4.44.

As to YGEYPECCVDVKPISQEKIESERA [S2G], the protein stability index turned out to be 5.11.

With YQEYPECCVDVKPISQEKIESERA [S2Q], the protein stability index came out at 4.29.

For the variant YDEYPECCVDVKPISQEKIESERA [S2D], the protein stability index came to 5.29.

With YCEYPECCVDVKPISQEKIESERA [S2C], the protein stability index worked out at 2.29.

As to VSEYPECCVDVKPISQEKIESERA [Y1V], the protein stability index was determined as 5.31.

On to HSEYPECCVDVKPISQEKIESERA [Y1H], for which the protein stability index was 5.21.

For the variant WSEYPECCVDVKPISQEKIESERA [Y1W], the protein stability index turned out to be 5.1.

In the case of QSEYPECCVDVKPISQEKIESERA [Y1Q], the protein stability index worked out at 5.33.

For ISEYPECCVDVKPISQEKIESERA [Y1I], the protein stability index stood at 4.87.

For the variant RSEYPECCVDVKPISQEKIESERA [Y1R], the protein stability index amounted to 5.62.

As for PSEYPECCVDVKPISQEKIESERA [Y1P], the protein stability index was 4.94.

On to TSEYPECCVDVKPISQEKIESERA [Y1T], for which the protein stability index was found to be 5.23.

Take KSEYPECCVDVKPISQEKIESERA [Y1K]: the protein stability index stood at 5.36.

For FSEYPECCVDVKPISQEKIESERA [Y1F], the protein stability index came to 4.12.

MSEYPECCVDVKPISQEKIESERA [Y1M]: the protein stability index was found to be 5.

With DSEYPECCVDVKPISQEKIESERA [Y1D], the protein stability index is 5.29.

As to CSEYPECCVDVKPISQEKIESERA [Y1C], the protein stability index stood at 5.2.

SSEYPECCVDVKPISQEKIESERA [Y1S]: the protein stability index came out at 5.75.

Take ESEYPECCVDVKPISQEKIESERA [Y1E]: the protein stability index is 5.86.

On to ASEYPECCVDVKPISQEKIESERA [Y1A], for which the protein stability index was 5.74.

Turning to NSEYPECCVDVKPISQEKIESERA [Y1N], the protein stability index amounted to 5.6.

For GSEYPECCVDVKPISQEKIESERA [Y1G], the protein stability index turned out to be 5.21.

LSEYPECCVDVKPISQEKIESERA [Y1L]: the protein stability index was 5.5.
